Results published in PMC4605297.

Target: T1, SsOGT C29A C29A (Sulfolobus solfataricus) (UniProt Q97VW7)
T1 sequence: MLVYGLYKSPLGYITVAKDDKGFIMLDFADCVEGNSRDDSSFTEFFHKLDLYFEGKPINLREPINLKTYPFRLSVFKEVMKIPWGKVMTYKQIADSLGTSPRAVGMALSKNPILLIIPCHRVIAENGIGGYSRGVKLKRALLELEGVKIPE
Test: competition
Conditions: O6-methylguanine at position 26 of strand 1; EMSA: 0-25 uM protein, 0.2 uM probe, 37 C 10 min, 10 ul, buffer as ref. 17, 8% native PAGE in 1X TBE pH 8.3; competition: BG-VG assay, 50 C under ref. …

Question: For “GGCAGTAGGCCTAGCATGACAATCTGCATTGGTGATCACGG / CGCTCATCCACAATGCAGATTGTCATGCTAGGCCTACTGCC [ds-Fwdm26]”, which Ki is on record?
Answer: 1.03 µM
